Columns and labels:
[1] = target: recombinant human HIRA(661–1017) (human) (UniProt P54198); assay: AUC; sedimentation equilibrium of the HIRA(661–1017)–CABIN1 FL complex isolated from a size-exclusion peak, slightly lower rotor speeds; 4 °C, 20 mM Tris pH 8.0, 300 mM NaCl, 1 mM TCEP; SEDPHAT ABBB model (A the HIRA trimer, B a CABIN1 monomer), apparent constants
[2] = target: recombinant human HIRA(661–1017) (human) (UniProt P54198); assay: AUC; sedimentation velocity, c(S) model in SEDFIT, 141,995×g; buffer with 300 mM NaCl, and also with 150 mM NaCl with consistent values

Chain of recombinant human HIRA(661–1017) (human) (P54198 661-1017): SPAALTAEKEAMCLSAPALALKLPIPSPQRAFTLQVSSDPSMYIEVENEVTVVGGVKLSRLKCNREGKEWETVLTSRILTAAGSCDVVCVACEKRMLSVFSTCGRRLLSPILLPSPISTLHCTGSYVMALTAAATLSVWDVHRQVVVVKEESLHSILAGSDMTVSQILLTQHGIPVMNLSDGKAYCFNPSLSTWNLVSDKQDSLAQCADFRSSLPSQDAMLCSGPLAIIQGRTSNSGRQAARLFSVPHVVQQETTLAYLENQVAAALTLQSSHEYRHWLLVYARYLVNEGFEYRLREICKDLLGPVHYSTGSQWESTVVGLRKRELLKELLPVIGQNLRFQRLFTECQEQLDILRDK
Chain of CABIN1 full length (FL), recombinant, Q9Y6J0 1-2220 (natural protein) (Q9Y6J0 whole entry): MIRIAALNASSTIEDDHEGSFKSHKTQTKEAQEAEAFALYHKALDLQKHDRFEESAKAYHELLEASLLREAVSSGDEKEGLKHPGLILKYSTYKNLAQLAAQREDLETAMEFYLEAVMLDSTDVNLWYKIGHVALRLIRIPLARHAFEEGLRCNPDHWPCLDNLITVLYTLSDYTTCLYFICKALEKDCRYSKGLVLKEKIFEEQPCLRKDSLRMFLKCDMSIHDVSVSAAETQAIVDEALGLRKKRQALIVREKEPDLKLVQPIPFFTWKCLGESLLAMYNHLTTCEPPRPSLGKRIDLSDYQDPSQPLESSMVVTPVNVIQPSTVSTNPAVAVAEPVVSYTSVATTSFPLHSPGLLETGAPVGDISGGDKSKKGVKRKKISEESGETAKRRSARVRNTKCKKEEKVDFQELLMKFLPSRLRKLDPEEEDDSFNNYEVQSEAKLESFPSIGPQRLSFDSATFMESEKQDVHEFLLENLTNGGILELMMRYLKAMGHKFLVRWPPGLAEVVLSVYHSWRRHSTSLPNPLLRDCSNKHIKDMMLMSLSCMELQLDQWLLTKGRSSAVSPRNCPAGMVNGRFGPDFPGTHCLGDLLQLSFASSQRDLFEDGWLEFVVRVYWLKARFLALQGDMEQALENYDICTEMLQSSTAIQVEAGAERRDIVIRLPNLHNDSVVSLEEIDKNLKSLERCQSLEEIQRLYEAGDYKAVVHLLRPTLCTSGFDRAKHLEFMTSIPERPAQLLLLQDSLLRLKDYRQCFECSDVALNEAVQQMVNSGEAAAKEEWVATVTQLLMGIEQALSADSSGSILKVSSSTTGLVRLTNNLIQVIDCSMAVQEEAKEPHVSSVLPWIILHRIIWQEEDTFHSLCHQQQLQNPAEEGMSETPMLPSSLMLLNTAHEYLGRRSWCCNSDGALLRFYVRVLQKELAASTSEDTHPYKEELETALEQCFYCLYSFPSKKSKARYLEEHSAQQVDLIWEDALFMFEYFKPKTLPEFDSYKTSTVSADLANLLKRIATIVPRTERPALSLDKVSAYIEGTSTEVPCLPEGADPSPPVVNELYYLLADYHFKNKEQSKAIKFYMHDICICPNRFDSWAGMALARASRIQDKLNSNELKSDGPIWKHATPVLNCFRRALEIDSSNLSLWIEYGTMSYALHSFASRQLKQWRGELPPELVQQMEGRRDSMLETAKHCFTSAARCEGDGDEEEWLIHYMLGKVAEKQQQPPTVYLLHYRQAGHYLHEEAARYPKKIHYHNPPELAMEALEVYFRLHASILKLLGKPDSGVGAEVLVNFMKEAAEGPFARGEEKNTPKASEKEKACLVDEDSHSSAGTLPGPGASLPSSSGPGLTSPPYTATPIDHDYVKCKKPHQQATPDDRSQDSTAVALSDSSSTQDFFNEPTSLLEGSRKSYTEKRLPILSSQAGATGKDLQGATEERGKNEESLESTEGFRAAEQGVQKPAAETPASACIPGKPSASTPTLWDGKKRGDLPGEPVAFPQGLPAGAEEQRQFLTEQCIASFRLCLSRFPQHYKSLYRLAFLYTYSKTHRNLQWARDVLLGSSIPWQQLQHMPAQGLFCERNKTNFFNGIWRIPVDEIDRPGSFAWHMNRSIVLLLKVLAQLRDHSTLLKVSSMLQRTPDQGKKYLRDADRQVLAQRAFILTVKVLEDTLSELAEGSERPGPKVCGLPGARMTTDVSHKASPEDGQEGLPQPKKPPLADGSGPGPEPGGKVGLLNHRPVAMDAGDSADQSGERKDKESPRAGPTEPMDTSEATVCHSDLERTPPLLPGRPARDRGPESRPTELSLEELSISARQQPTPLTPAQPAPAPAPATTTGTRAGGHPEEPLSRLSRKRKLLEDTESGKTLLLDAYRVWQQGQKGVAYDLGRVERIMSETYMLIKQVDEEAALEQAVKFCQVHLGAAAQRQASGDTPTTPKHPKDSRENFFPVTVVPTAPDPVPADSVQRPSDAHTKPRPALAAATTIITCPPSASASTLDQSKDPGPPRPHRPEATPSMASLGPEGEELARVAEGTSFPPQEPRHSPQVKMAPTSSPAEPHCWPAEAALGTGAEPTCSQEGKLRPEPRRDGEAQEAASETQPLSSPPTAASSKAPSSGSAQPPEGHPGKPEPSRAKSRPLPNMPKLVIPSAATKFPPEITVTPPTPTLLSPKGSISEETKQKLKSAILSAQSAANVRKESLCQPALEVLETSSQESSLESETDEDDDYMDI

Kd, third binding event [1]: 10 µM | apparent Kd, first two binding events [1]: < 0.001 µM | stoichiometry N (CABIN1 per HIRA trimer) [1]: 2 | stoichiometry N (CABIN1 per HIRA trimer) [2]: 2
Substance: CABIN1 full length (FL), recombinant, Q9Y6J0 1-2220 (natural protein)

Source: article PMC6078998
